The source of these data is PMC3488082 (The Journal of Biological Chemistry, 2012).

This data set concerns the molecule itself. The data set can be described thus: crystal structure.

B1: Human aldehyde dehydrogenase-2 (ALDH2), wild-type (enzyme)
chain: SAAATQAVPAPNQQPEVFCNQIFINNEWHDAVSRKTFPTVNPSTGEVICQVAEGDKEDVDKAVKAARAAFQLGSPWRRMDASHRGRLLNRLADLIERDRTYLAALETLDNGKPYVISYLVDLDMVLKCLRYYAGWADKYHGKTIPIDGDFFSYTRHEPVGVCGQIIPWNFPLLMQAWKLGPALATGNVVVMKVAEQTPLTALYVANLIKEAGFPPGVVNIVPGFGPTAGAAIASHEDVDKVAFTGSTEIGRVIQVAAGSSNLKRVTLELGGKSPNIIMSDADMDWAVEQAHFALFFNQGQCCCAGSRTFVQEDIYDEFVERSVARAKSRVVGNPFDSKTEQGPQVDETQFKKILGYINTGKQEGAKLLCGGGIAADRGYFIQPTVFGDVQDGMTIAKEEIFGPVMQILKFKTIEEVVGRANNSTYGLAAAVFTKDLDKANYLSQALQAGTVWVNCYDVFGAQSPFGGYKMSGSGRELGEYGLQAYTEVKTVTVKVPQKNS
modifications: thionitrate adduct on Cys-302 (GTN-soaked crystal)
A word on the stoichiometry N: it is a count of units in the complex or per binding partner. For the protein B1, the “stoichiometry N” value was found to be 4.

B2: Human aldehyde dehydrogenase-2 (ALDH2) triple mutant E268Q/C301S/C303S (enzyme)
chain: SAAATQAVPAPNQQPEVFCNQIFINNEWHDAVSRKTFPTVNPSTGEVICQVAEGDKEDVDKAVKAARAAFQLGSPWRRMDASHRGRLLNRLADLIERDRTYLAALETLDNGKPYVISYLVDLDMVLKCLRYYAGWADKYHGKTIPIDGDFFSYTRHEPVGVCGQIIPWNFPLLMQAWKLGPALATGNVVVMKVAEQTPLTALYVANLIKEAGFPPGVVNIVPGFGPTAGAAIASHEDVDKVAFTGSTEIGRVIQVAAGSSNLKRVTLQLGGKSPNIIMSDADMDWAVEQAHFALFFNQGQSCSAGSRTFVQEDIYDEFVERSVARAKSRVVGNPFDSKTEQGPQVDETQFKKILGYINTGKQEGAKLLCGGGIAADRGYFIQPTVFGDVQDGMTIAKEEIFGPVMQILKFKTIEEVVGRANNSTYGLAAAVFTKDLDKANYLSQALQAGTVWVNCYDVFGAQSPFGGYKMSGSGRELGEYGLQAYTEVKTVTVKVPQKNS
B2: the “stoichiometry N” value is 4.
